Target: T1, 全长CD271蛋白抗原 (human CD271, full-length protein antigen) (human, UniProt P08138 29-250, limits assumed)
T1 construct: Printed only as full-length CD271 protein; also called CD271全长蛋白; 全长抗原CD271
T1 sequence (looked up): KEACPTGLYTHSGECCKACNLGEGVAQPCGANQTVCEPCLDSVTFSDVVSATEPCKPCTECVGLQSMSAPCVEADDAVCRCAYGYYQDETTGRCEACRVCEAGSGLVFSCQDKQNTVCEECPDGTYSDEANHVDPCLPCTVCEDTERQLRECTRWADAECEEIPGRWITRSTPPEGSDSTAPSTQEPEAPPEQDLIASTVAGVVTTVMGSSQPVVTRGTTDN
Experiment: BLI (ForteBio), full-length CD271 immobilised on ProA sensor, antibody at 30-130 nM

B1: 抗人CD271单克隆抗体 CD271T-2 (小鼠腹水纯化抗体, 杂交瘤细胞株CD271T-2, CGMCC 21494) (antibody, V domains shown)
VH: QVTLKESGPGILKPSQTLSLTCSFSGFSLSTSGMGVGWIRQPSGKGLEWLAHIWWDDDKYYNPSLKSQLTISKDTSRNQVFLKITSVDTAGTATYYCARRDYGNYYAMDYWGQGTSVTVS
VL: DIVLTQSPASLAVSLGQRATISCKASQSVDYDGDSYMNWYQQKPGQPPKLLIYAASNLESGIPARFSGSGSGTDFTLNIHPVEEEDAATYYCQQSNEDPFTFGSGTKLEIK
notes: It was purified from mouse ascites on MabSelect SuRe; also called CD271T-2腹水纯化抗体; 抗人CD271腹水抗体
Binder B1 has a Kd of 3.37 nM, a koff of 0.000225 s⁻¹ and a kon of 66900 M⁻¹ s⁻¹.

— patent CN113151186A (UNIV SHANGHAI JIAOTONG, dated 2021)
